For orientation: Kd means a measure of binding affinity in units of concentration. In general, stoichiometry N refers to a count of units in the complex or per binding partner.

Where two headings read alike, the source gives them in different places. Where no end group is shown, it is not given here. GST = glutathione S-transferase fusion tag

Assay [1] concerns the target T1, FCHo1 µHD (residues 623 to 889) (Homo sapiens, UniProt O14526).
T1 construct: GST (N, cleaved yes); made in house; host or cells: Escherichia coli (as for the SGIP1 μHD)
T1 sequence (O14526 623-889): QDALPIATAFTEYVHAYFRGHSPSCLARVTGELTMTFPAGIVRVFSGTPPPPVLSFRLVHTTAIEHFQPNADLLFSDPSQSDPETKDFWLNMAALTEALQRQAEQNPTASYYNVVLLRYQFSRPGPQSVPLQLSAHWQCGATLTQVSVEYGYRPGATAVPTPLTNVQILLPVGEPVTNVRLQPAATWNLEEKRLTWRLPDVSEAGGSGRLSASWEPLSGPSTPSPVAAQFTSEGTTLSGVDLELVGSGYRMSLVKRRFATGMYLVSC
Description: ITC of Eps15 fragments with the FCHo1 μHD. The following applies: for Kd / -TΔS / ΔG / ΔH: 25 °C; for Kd: 50 mM Tris-HCl pH 8.0, 50 mM NaCl, global fit of two runs; for Kd / -TΔS / ΔG / ΔH / N (binding ratio of Eps15 fragment to FCHo1 μHD): single-site model; for Kd / ΔH / N (binding ratio of Eps15 fragment to FCHo1 μHD): ± 68.3% confidence interval. In kind it is binding. Here is the method:
(§1) For the majority of the ITC experiments, the SGIP1 μHD, its mutants, or the FCHo1 μHD, in 50 mM Tris-HCl buffer (pH 8.0) containing 50 mM NaCl, was loaded in the sample cell, in a volume of 1.42 ml, and titrated with various Eps15-derived fragments or peptides in the same buffer, with an initial 5 μl injection and subsequent 10 μl injections, for a total of 25 injections. The titrations were performed while the samples were stirred at 310 r.p.m. at 25 °C. Each injection was followed by an interval of 4 min, to allow baseline stabilization. For the other ITC experiments indicated in Supplementary Table 2, the Eps15-derived fragments or peptides in the sample cell were titrated with the SGIP1 or FCHo1 μHD. All ITC experiments were performed on a VP-ITC microcalorimeter (MicroCal, LLC) and repeated twice, and the data were processed with the program NITPIC[42]. The two data sets from each ITC experiment were analyzed by global weighted least-squares fitting with the program SEDPHAT[43]. Figures for the ITC data were created with the program GUSSI (http://biophysics.swmed.edu/MBR/software.html). To obtain the values of the traditional stoichiometric parameter N in our ITC data analyses (Supplementary Table 2), we used the values of the parameters of the incompetent fractions of proteins and ligands. […] The values of the incompetent fractions are between 0 and 1, whereas the other parameter affecting the traditional parameter N, the number of sites, was fixed as 1 and 2, for the single- and two-site models, respectively. Thus, in the two-site model, the values of N for the first and second sites are identical in our ITC data analyses (Supplementary Table 2).

Assay [2] has as its target T2, SGIP1 μHD (residues 552 to 828) (Homo sapiens, UniProt Q9BQI5).
T2 construct: the SGIP1 μHD (residues 552 to 828); GST (N, cleaved yes); made in house; host or cells: Escherichia coli BL21-Gold (DE3) or Rosetta2
T2 sequence (Q9BQI5 552-828): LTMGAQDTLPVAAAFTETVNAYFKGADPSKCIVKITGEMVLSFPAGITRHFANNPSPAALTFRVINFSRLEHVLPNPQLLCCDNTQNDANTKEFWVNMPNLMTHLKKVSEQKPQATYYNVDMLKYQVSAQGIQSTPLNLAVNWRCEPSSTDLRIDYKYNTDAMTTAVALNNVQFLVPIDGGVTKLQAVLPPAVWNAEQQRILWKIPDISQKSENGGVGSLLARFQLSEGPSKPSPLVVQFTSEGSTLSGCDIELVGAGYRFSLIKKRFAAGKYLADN
In words: ITC of Eps15 fragments with the SGIP1 μHD. In kind it is binding. The following applies: for Kd: 50 mM Tris-HCl pH 8.0, 50 mM NaCl, global fit of two runs. How it is done:
as §1

For assay [3], the target named is α-adaptin appendage domain (residues 711 to 955). Description: ITC of Eps15 fragments with the α-adaptin appendage domain. In kind it is binding, human.
Assay [4] deals with T3, SGIP1 µ homology domain (µHD), residues 552 to 828 (human, UniProt Q9BQI5-1 552-828).
T3 construct: pGEX-6P-1 construct cut with 3C protease; also called SGIP1 µHD; human SGIP1 µHD (aa552–828); source: E. coli BL21-Gold (DE3) or Rosetta2, purified (Glutathione Sepharose 4B, 3C protease cleavage, Superdex 200)
T3 sequence (looked up): T2 sequence (Q9BQI5 552-828)
Description: ITC; µHD, µHD mutant or α-adaptin appendage domain in the sample cell, titrated with the Eps15 fragment or peptide; 50 mM Tris-HCl (pH 8.0), 50 mM NaCl, 25 °C; VP-ITC; two data sets fitted globally (NITPIC, SEDPHAT); single-site model. Conditions: both partners purified. A general note: ITC needs no label: the signal is the heat of the interaction.

The target in assay [5] is appendage domain of human α-adaptin, residues 711 to 955 (human) (UniProt O95782). The description is as above.
Setting [6] is: FCHo1 μHD in cell titrated with fragment.
Where [7] appears, read: fragment in cell titrated with μHD (Experiment 37a).
Setting [8] is: 25 °C, fragment in cell titrated with μHD, single-site model.
Setting [9] is: 25 °C, fragment in cell titrated with μHD, two-site model, first site.
The mark [10] stands for this setting: 25 °C, fragment in cell titrated with μHD, two-site model, second site.

On to “Eps15-618–654: Eps15 fragment, 37-residue region containing six consecutive DPF motifs; high-affinity binding site (DFFQSDPFVGSDPFKDDPFGKIDPFGGDPFKGSDPFA; UniProt P42566 618-654, looked up, fragment)”, for which the “Kd for the FCHo1 μHD (in words)” value in assay [1] was “in the nanomolar range”. The Kd in assay [1] (Eps15 fragment in cell titrated with μHD (Experiment 37a)) came to 0.19 ± 0.09 µM; in assay [1] (setting [6]), 0.27 ± 0.1 µM; in assay [2] (25 °C, Eps15 fragment in cell titrated with SGIP1 μHD, two-site model, second site, 68.3% confidence interval, read-out: Kd, second site), 55.5 µM; in assay [2] (25 °C, Eps15 fragment in sample cell titrated with SGIP1 μHD, single-site model, ± 68.3% confidence interval, read-out: Kd), 0.42 ± 0.25 µM. The “-TΔS” value in assay [1] (setting [6]) was 2.81 kJ/mol; in assay [1] (setting [7]), -6.577 kJ/mol; in assay [2] (setting [8]), 1.16 kJ/mol; in assay [2] (setting [9]), -9.811 kJ/mol. The ΔG in assay [1] (setting [6]) is -37.51 kJ/mol; in assay [1] (setting [7]) it was -38.32 kJ/mol; in assay [2] (setting [8]), -36.42 kJ/mol; in assay [2] (setting [9]), -41.02 kJ/mol. The ΔH is -40.33 ± 1.59 kJ/mol in assay [1] (setting [6]); -31.74 ± 1.67 kJ/mol in assay [1] (setting [7]); -37.58 ± 2.67 kJ/mol in assay [2] (25 °C, fragment in cell titrated with μHD, single-site model, ± 68.3% confidence interval); -31.21 ± 0.703 kJ/mol in assay [2] (25 °C, fragment in cell titrated with μHD, two-site model, first site, ± 68.3% confidence interval). The “N (binding ratio of Eps15 fragment to FCHo1 μHD)” value was found to be 0.59 ± 0.02 in assay [1] (setting [6]) and 0.70 ± 0.03 in assay [1] (setting [7]). In addition, the Strength of affinity result in assay [1] (human FCHo1 µHD (aa623–889), Supplementary Table 3, This study) was “high”; in assay [2] (human SGIP1 µHD (aa552–828), Supplementary Table 3, This study), “high”. Moreover, in assay [2] (setting [10]), the “-TΔS, second site” value stood at 15.57 kJ/mol. In addition, the “ΔG, second site” value in assay [2] (setting [10]) is -24.71 kJ/mol. In addition, in assay [2] (25 °C, fragment in cell titrated with μHD, two-site model, second site, 68.3% confidence interval), the “ΔH, second site” value is reported as -9628 (< -6103) cal/mol. Besides, the “N (binding ratio of Eps15 fragment to μHD)” value in assay [2] (fragment in cell titrated with μHD, single-site model, ± 68.3% confidence interval) turned out to be 0.81 ± 0.04; in assay [2] (fragment in cell titrated with μHD, two-site model, first site (N identical for both sites), ± 68.3% confidence interval), 0.88 ± 0.02. Also, the “N, second site” value in assay [2] (fragment in cell titrated with μHD, two-site model, second site (N identical for both sites), ± 68.3% confidence interval) was 0.88 ± 0.02.
For “Eps15-661–720: Eps15 fragment spanning residues 661 to 720, 4 DPF motifs (QSTDPFATSSTDPFSAANNSSITSVETLKHNDPFAPGGTVVAASDSATDPFASVFGNESF; UniProt P42566 661-720, looked up, fragment)”, in assay [3], the “Kd for the α-adaptin appendage domain (in words)” value was “in the nanomolar range”. Binding in assay [3] (25 °C, appendage domain titrated with Eps15 fragment, single-site model, global fit of two runs, ± 68.3% confidence interval) was characterised by a dissociation constant (Kd) of 0.27 ± 0.13 µM. For the same molecule, in assay [3] (25 °C, single-site model), the “-TΔS” value is 24.94 kJ/mol and the ΔG is -37.53 kJ/mol. The molecule further came in with a ΔH in assay [3] (25 °C, single-site model, ± 68.3% confidence interval) of -62.471 ± 7.916 kJ/mol.

B1: GST-Eps15-628–654 (domain or fragment, human)
chain: {GST}-SDPFKDDPFGKIDPFGGDPFKGSDPFA
notes: source: E. coli, purified (Glutathione Sepharose 4B, glutathione elution, Superdex 200); not shown: GST, N-terminal, kept
Take B1: in assay [4], the Kd was found to be 1 µM and the “stoichiometry N” value was 0.86.

B2: Eps15-662–676 (peptide)
peptide: Ac-YSTDPFATSSTDPFSA-NH2
notes: artificial N-terminal Tyr; source: synthetic peptide (Eurofins Genomics)
In assay [4], B2 returned an equilibrium dissociation constant (Kd) of 125 µM.

B3: Eps15-645–654 (peptide)
peptide: Ac-YDPFKGSDPFA-NH2
notes: extra (artificial) N-terminal Tyr residue, to facilitate the concentration determination by absorbance; source: synthetic peptide (Eurofins Genomics)
Take B3: in assay [4], binding was characterised by a dissociation constant (Kd) of 22.4 µM and the “stoichiometry N” value was determined as 0.75.

B4: Eps15-640–649 (peptide)
peptide: Ac-YDPFGGDPFKG-NH2
notes: as for B3
As to B4, in assay [4], binding was put at a Kd of 30.2 µM and the “stoichiometry N” value stood at 0.66.

B5: Eps15-640–649D645N (peptide)
peptide: Ac-YDPFGGNPFKG-NH2
notes: as for B2
Regarding B5, the dissociation constant (Kd) in assay [4] was 73.1 µM.

B6: Eps15-640–649F642W (peptide)
peptide: Ac-YDPWGGDPFKG-NH2
notes: as for B2
The molecule B6 gave a Kd in assay [4] of 229 µM.

B7: Eps15-640–649D640N (peptide)
peptide: Ac-YNPFGGDPFKG-NH2
notes: as for B2
The molecule B7 registered a Kd in assay [4] of 103 µM.

B8: Eps15-640–649D640E (peptide)
peptide: Ac-YEPFGGDPFKG-NH2
notes: as for B2
Turning to B8, the dissociation constant Kd in assay [4] was found to be 325 µM.

B9: GST-Eps15-628–644 (domain or fragment, human)
chain: {GST}-SDPFKDDPFGKIDPFGG
notes: as for B1
B9: in assay [4], the Kd was 0.65 µM and the “stoichiometry N” value turned out to be 0.92.

B10: Eps15-628–654 (peptide)
peptide: Ac-YSDPFKDDPFGKIDPFGGDPFKGSDPFA-NH2
notes: as for B2
As for B10, the “stoichiometry N” value in assay [4] amounted to 0.67.

B11: Eps15-661–790 (domain or fragment)
chain: GPLGSYQSTDPFATSSTDPFSAANNSSITSVETLKHNDPFAPGGTVVAASDSATDPFASVFGNESFGGGFADFSTLSKVNNEDPFRSATSSSVSNVVITKNVFEETSVKSEDEPPALPPKIGTPTRPCPLPPGKRSW
Consider B11, for which, in assay [5], the Kd turned out to be 0.69 µM and the stoichiometry N was determined as 1.19.

B12: Eps15-622–637 (peptide)
peptide: Ac-YSDPFVGSDPFKDDPFG-NH2
notes: as for B2
Regarding B12, in assay [4], the Kd was found to be 4.9 µM and the “stoichiometry N” value came out at 0.85.

B13: Eps15-661–720 (domain or fragment)
chain: GPLGSYQSTDPFATSSTDPFSAANNSSITSVETLKHNDPFAPGGTVVAASDSATDPFASVFGNESF
In assay [5], B13 displayed a dissociation constant (Kd) of 0.27 µM and a stoichiometry N of 0.47.

Source of the values: PMC4731787, “Structural basis for the recognition of two consecutive mutually interacting DPF motifs by the SGIP1 μ homology domain” (Scientific Reports, 2016).
